Data: the nanobody polyreactivity screen of Harvey et al. (2022)

Test: yeast display, Sf9 membrane polyspecificity reagent, FACS + sequencing; frameworks hold sequencing errors
Procedure, shortened: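 A synthetic nanobody library was expressed on Saccharomyces cerevisiae BJ5465 by galactose induction for 36–48 hours. The library was stained for 1 hour at 4 °C with 10% biotinylated, detergent-solubilized Sf9 membrane reagent and enriched with streptavidin microbeads before FACS. Low and high (top ~1%) gates were set on anti-HA fluorescence for expression and streptavidin fluorescence for reagent binding, and each polyreactivity label reflects the gate of origin.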

| Sequence | polyreactivity (PSR sort gate) |
| --- | --- |
| QVQLVESGGGLVQAGGSLRLICAASGRTFVYYAMGWYRQAPGKERELVAAISSSGGSTSYADSVKGRFTISRDNAKNTVYLQMNSLKPEDTAFYYCAADVSVSGYYYWGQGTQVTVSS | high polyreactivity |
| PVQLVESGGGLVQAGASLRLSCAASGNTFIENAKGSYRQAPGKERELVADIDTGGSTYYADSVKGRFTISRDNAKNTVYLQMNRLKPEDTADYYCTAVGLYLYRYKFGYLGKIGPGYDYWGQGTQVTVSS | low polyreactivity |
| QDQLVESGGGLVQAGGSLRLSCAASGSILGHYDMGWYRPAPGKERELVAAISWSGGSTYYADSVKGRFTISRDNAKNTVYLQMNSLKPEDTAVYYCNAAAILYTSAGSLYWYDYWGQGTQVTVSS | low polyreactivity |
| QDQLVESGGGLVQAGGSLRLSCAASGRTFIRNSMGWNRQAPGKERELVAAISGTGGSTYYADSVKGRFTISRDYAKNTVYLQMNSLKPEDTAVYYCAADRPAPGYDFWGQVTQVTVSS | low polyreactivity |
| QVQLVESGGGLVQAGGSLRLSCAASGSTFTYNTMGWYRQAPGKERELVAAISWGGGGTYYADSVKGRFTISRDNAKNSVYLQMNSLKRVDTAVYYCKADPWWDYGTFDYWGQGTQVTVSS | low polyreactivity |
| QGQLVESGGVLVQAGGSLRLSCAASGSIIQPYAMGWYRQAPGKERELVAAISRGGTTYYADSVKGRFTISRDNAKNTVYLQMNSLKPEDTAVYYCAVKGYRYGTRYDYWGQGTQVTVSS | high polyreactivity |
| QVQLVESGGGLVQAGGSLRLSCAASGRIYVYAMGWYRQAPGKEREMVAAITASDGSTYYADSVKGRFTISRDNAKNTVYLQMNSLKPEDTAVYYCAADIYEHNYYGYYYWGQGTKVTVSS | high polyreactivity |
| QVQLVESGRGLVQAGGSLRLSCAASGIIFAQNAMGWYRQAPGKEMVLVAAISLDGGSTNYADSVKGRFTISRDNAKNTVYLQMNSLKPEDTAVYYCAADDGWIEPVYGYYEHEYWGQGTQVTVSS | low polyreactivity |
| QVQLVESGGGLFQAGGSLRLSCAASGSIFWGYDMGWYRQPPGKERELGARISYSGGSTSYADSVKGRFTISRDNAKNTVYLQMNSLKPEDTAVYYCAADEGGFWWTYPYDCWGQGTQVSVSS | low polyreactivity |
| QVQLVESGGGLVQAGGSLRLSCAASGFTFDIYAMGWYRQAPGKEREMVADITSGGSTDYADSVKGRFTISRDNAKNTVYLQMNSLKPEDTAVYYCNGAVFYDPEWQYDYWGQGSQVTVSS | low polyreactivity |
| QVQLVESGGRLVQAGGSLRLSSAASGSTFYVYTMGWYRQAPGKEWELVAAISSGSSTNYADSVKGRFTISRDNAKNTVYLQMNSLQPEDTAVYYCAATRFSYVFPYRYDYWGQGTQVTVSS | low polyreactivity |
| QVQLVESGGGLVQAGGSLRLSCAASGFIFRYNAMGLYRQAPGKERELVARINSGVSTNYADSVKGRFTISRDNAKNTVYLQMNSLKPEDTAVYYCNARVRRGYSRFDYWGQGTQVTVSS | high polyreactivity |
| QVQLQESGGRLVQAGVSLRLSCAASGSIYDDTYMGWYRQAPGKERELVATIDSGSTTNYADSVKGRITISRDNAKNTVYLQMNSLKPEDTAVYYCAAADSHIDYFDYWGQGTQVTVSS | low polyreactivity |
| QVQLVESGGGLVQAGGSLRLSCAASGSIFYVYAMGWYRQAPGKERELVATISSSAGSTYYADSVKGRFTISRDNAKNTVYLQMNSLKPEDTAVYYCAAKVRYSLRKYYYWGQGTQVTVSS | high polyreactivity |
| QVQLVESGGGLVQAGGSLRLTCAASGSTFTYNGMGWYRQAPGKERELVAAITKRGGSTYYADSVKGRFTISRDNAKNTVYLQMNSLKPEETAVYYCAKPAASGFRWDSGYWGQGTQVTLSS | high polyreactivity |
| QVQLVESGGGLVQAGGSLRLSCAASGRTFYDYTMGWYRQAPGKERELVAVISKRGGSTYYADSVKGRFTISRDNAKNTVYLQMNSLKPEDTAVYYCAAKSGRNVYQKVDYWGQGTQVTVSS | high polyreactivity |
| QVQLVESGGGLVQAAGSLRLSCAASGLTFPFYTMGWYIQAPGKARELVAAISRRGGSTYYADSVKGRFTISRDNAKNTVYLQMNSLKPEDTAVYYCAADKYSWYDYWGQGTQVTVSS | low polyreactivity |
| QVQLVESGGGLVQAGGSHRLSSAASGLTFGGNAMGWYRQAPGKERELVAGISSSGNTNYADSVKGRFTISRDNAKNTVYLQMNSLKPEDTAVYYCAADENITYPVYDMYDWGQGTQVTVSS | low polyreactivity |
| QVQLVESGGGLVQAGGSLRLSCAASGITLLYYAMGWYRQAPGKERELVAVIDWSGGDTYYADSVKGRFTISRDNAKNTVYLQMNSLKPEDTAVYYCARGSRLVYRRSGFDYWGQGTQVTVSS | low polyreactivity |
| QVQLVESGGGLVKAGGSLRLTCAASGIILRANVMGWYRQAAGKERELLAAISGSGGRTYYADSVKGRFTISRDNAKNSVYLPMNSLKPEDTAVYYCNTPYGLHQAYPYDYWGLGTQVTVSS | high polyreactivity |
| QVQLVESGGGLVQAGGTLRLICAATGRTFDFNAMGWYRQAPGKERELVAAITESGGSTYYADSVKGRFTISRDNAKNTVYLQMNSLKPEDTAVYYCAVAGNYYRDYPEVSYFSIYNYWGQGTQVTVSS | low polyreactivity |
| QVQLVESGGGLVQAGGSLRLSCAASGLTFQYNAMGWYRQAPGKERELVASINSGGSTDYADSVKGRFTISRDNAKNTVYLQMNRLKQEDTAVYYCATSGYWYSASYGYEYWGQGTQVTLSS | low polyreactivity |

| Sequence | polyreactivity (PSR sort gate) |
| --- | --- |
| QVQLVESGGGLVQAGGSLRLSCAASGITFDKYAMGWYRQAPGKERELVARITSGGGTNYADSVKGRFTISRDNAKNTVYLQMNSLKPEDTAVYSCNKRTSPKRFDYWGQGTQVTVSS | high polyreactivity |
| QVQLVESGGGLVQAGGSLRLSCAASGIIFVPYAMGWYRQAPGKERELVAANNSGGNTYYADSVKGRFTISRDNAKNTVYLLIYSLKPEDTAVYYCGAYSKYPVFDYNYWGQGTQVTVSS | high polyreactivity |
| QVQLVESGGGLVQAGGSLRLSCAASGITFFSYAMGWYREAPGKERELVAAISRRTGSTYYADSVKGRFTISRDNGMNTVFLQMMSLKPEDTAVYYCAARLPGTRYPYDYWGQGTQVTVSS | high polyreactivity |
| QVQLVESGGGLVQAGGSLRLSCAASGRTFSVNDMGWYRQAPGKERELVAAISFSGGSTYYADSVKGRFTISRDNAKNSVYLQMNSLKPEDTEVYYCAAEAYASCFYVITGFGIYDYWGQGTQVTVSS | high polyreactivity |
| QVQLVESGGGLVQAGGSLRLSCAASGRTFWRYAMGWYRQAPGKERELVAGITSRGGSTYYADSVKGRFTISRDNAKNTVYLQMNSLKPEDTAVYYCNRRSQVHSHSKHDYWGQGTQVTVSS | low polyreactivity |
| QDQLVESGGGLVQAGGSLRLSCAASGHIFPYNAMGWYRQAPGKEREIVAASSFRGGSTYYADSVKGRFTISRDNAKNTVYLQMNSLKPEDTAVDYCAKRSYPWGQGTQVTVSS | low polyreactivity |
| QVQLVDSGGGLVQAGGSLRLSCAASGNTIGRNAMGWYRQAPGKEWELVAAISFSGSRTYYADSVKGRFTISRDNAKNSVYLQMNILKPEDTAVYNFIAPEGRKPYDSWVQGTQVTVSS | low polyreactivity |
| QVQLVESGGGLVQAGGSLRLSCAASGSTFGYYAMGWYRQAPGKERELVAAITSNDGSTNYADSVKGRFTISRDNAKKTVYLQMNSLKPEDTAVYYCNARSFVAVISSFDYWGQGTQVTVSS | low polyreactivity |
| QVQLVESGGGLVQAGGSLRLSCDASGLIFYYYAMGWYRQAPGKERELVAAIRWSGGSTYYADSVKGRFTISRDNAKNTVYLQMNSLKPEDTAVYYCSEFYYWGQGTQVTVSS | high polyreactivity |
| QLQLVDSGGGLVQAGGSLRLSCAASGLIFPAYTMGWYRQAPGKQRELVAAISRSGGSTYYADSVKGRFTISRDNAKNTVYLQMNSLKTEDTAVYYCAAFYSGGYDYWGQGTQVTVSS | high polyreactivity |
| QVQLVESGGGLVQAGGSLRLSCAASGSIFFNYAMGWYRKAPGKERELVATITSGGSTYYADSVKGRFTISRDNAKNTVYLQMNSLKPEDTAVYYCAVDEYFAFDYWGQGTQVTVSS | low polyreactivity |
| QVQLVESGGGLVQAGGSLRLSCAASGRTLAPYAMGWYRQAPGKERELVAISTSGGSTYYADSVKGRFTISRDNGKNTVYLQMNSRKPEDNAVYYCAADGNSTGVYWWFYGFDYWGQGTQVTVSS | low polyreactivity |
| QLQLVESGGGIVQAGGSLRLSCAPSGRIFFPNAMGSYRQAPGTERELVAGISIGGSTNYADSVKGRFTISRDNAKNTVYLQMNSLKPEDTAVYYWAARSPFGRWRDYWGQGTQVTVSS | low polyreactivity |
| QVQLVESGGGLVQAGGSLRLSCAASGSTFIFYTLGWYRQAPGKERELVAAITSNGGSTYYADSVKGRFTISRDTAKKTVYLQMNSLKPEDTAVDYCAKKGVGQYDWGQGTQVTVSS | high polyreactivity |
| QVQLVESGGGLVQAGGSLRLSCAASGRTIYGYAMGWYRQAPGKERELVARIRSGGSTNYADSVKGRFTISRDNAKNTVYLQMNSLKPEDTAVYYCAARPGAAGYKYYYWGQGTQVTVSS | high polyreactivity |
| QVQLVESGGGLVQAGGSLRLSCAASGRIFGNYYKVWFRQAPGKERDLVAAISGGGSTYYADSVKGRFTISRDNAKNTVYLQMNSLKPEDTGVYYCAARFLWSVFGRKGGYWGQGTQVTVSS | low polyreactivity |
| QVQLVESGGGLVQAGGSLRLSCAASGSTFSYNAMGWYRQAPGKERELVAAIRWGGGSTYYADSVKGRFTISCDNAKNTVYLQMNSLKPEDTAVYYCARYGYRRVGSRWAEFDYWGQGTQVTVSS | high polyreactivity |
| QVQLVESGGCLVQAGGSLRLSCAASGRTFYIYAMGWYRQAPGKERELVAAINFSDGSTSYADSVKGRFTISRDNAKHTVYLQMNSLKPEDTAVYYWGQGTKVTVSS | low polyreactivity |
| QVQLVESGGGLVQAGGSLRLSCAASGRIFYIYAMGWYRQAPGKERELVATISVSGGRTYYADSVKGRFTISRDNAKNTVYLQMNSLKPEDTAVYYCAKECRFNIHKWYDYWGQGTQVTVSS | low polyreactivity |
| QVQLQESDGGLVQAGGSLRLSCAASGSISPQYYMGWYRQEPGKEREFVAISKGTTTYYADSVKGRLTISRVNAKNTVYLQMNSLKPEDTAVYCCAAGRWLQKVHAYWDQGTQVTVSS | low polyreactivity |
| QVQLVESGGGLVQAGGSLRLSCAASGISFNGNAMGWYRQAPGKERELVAAISGSGGSTYYADSVKGRFTISRDNAKNSVYLQMNSLKQEDTAVYYCNALYGRRVYVGYDYWGQGSQVTVSS | high polyreactivity |
